Numbering of substitutions follows the chain as printed.
T1: human IL-1α (human, UniProt P01583 113-271)
T1 sequence (looked up): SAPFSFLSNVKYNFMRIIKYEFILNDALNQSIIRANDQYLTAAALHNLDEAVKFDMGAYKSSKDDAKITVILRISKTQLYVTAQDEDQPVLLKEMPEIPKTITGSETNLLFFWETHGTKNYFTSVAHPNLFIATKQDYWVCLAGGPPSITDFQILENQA

B1: ABT1-122-750x (other)
VL: DIQMTQSPSSLSASVGDRVAITCSASQHIWTEISWYQQKPGKAPKLLIYGSASRQKGVPSRFSGSGSGTDFTLTISSLQPEDFATYYCKQFAYFPNTFGQGTKVEIKR
B2: ABT1-149 (other)
VL: DIQMTQSPSSLSASVGDRVTITCRASQSISSYLNWYQQKPGKAPKLLIGGLSGLQSGVPSRFSGSGSGTDFTLTISSLQPEDFATYYCMQWWRWPSTFGQGTKVEIKRAAAEQKLISEED
B3: ABT1-99 (other)
VH: EVQLLESGGGLVQPGGSLRLSCAASGFTFGKYSMTWVRQAPGKGLEWVSVIDPWGHYTYYADSVKGRFTISRDNSKNTLYLQMNSLRAEDTAVYYCAKSVDATLLRRYFDYWGQGTLVTVSS
B4: ABT1-97 (other)
VH: EVQLLESGGGLVQPGGSLRLSCAASGFTFWEYDMYWVRQAPGKGLEWVSRISGSGRYTYYADSVKGRFTISRDNSKNTLYLQMNSLRAEDTAVYYCAKRSLTRPSQFDYWGQGTLVTVSS
B5: ABT1-95-21 (other)
VL: DIQMTQSPSSLSASVGDRVTITCRASQPIVRNLRWYQQKPGKAPKLLIYSSSYLEPGVPSRFSGSGSGTDFTLTISSLQPEDFATYYCQQGYRWPVTFGQGTKVEIKR
notes: VK dAb
B6: ABT1-95-170 (other)
VL: B5 VL with Q27R, S50A, Y87H
B7: ABT1-95-172 (other)
VL: B5 VL with Q27R, S50A, S51V, Y87H
B8: ABT1-95-166 (other)
VL: B5 VL with S51K, Y87H
B9: ABT1-95-173 (other)
VL: B5 VL with T22S, Q27R, Y87H, Q89R
B10: ABT1-95-167 (other)
VL: B5 VL with S51R, T69A, Y87H
B11: ABT1-95-184 (other)
VL: B5 VL with Q27R, P28T, I29P, S51R, Y87H, Q89L, V96P
B12: ABT1-95-176 (other)
VL: B5 VL with Q27R, S50A, S51V, Y87H, Q89R
B13: ABT1-95-A6 (other)
VL: B5 VL with Q27K, I29G, L33M, S50A, S51K, Y87H, Q89K, T97Q
B14: ABT1-95-171 (other)
VL: B5 VL with Q27R, S51V, Y87H
B15: ABT1-95-A5 (other)
VL: B5 VL with Q27R, P28T, I29P, S51R, Y53F, Y87H, Q89L, V96P
B16: ABT1-95-A3 (other)
VL: B5 VL with Q27K, I29G, L33M, S51V, Y87H, Q89L, V96P
B17: ABT1-95-179 (other)
VL: B5 VL with Y87H, Q89R, V96P
B18: ABT1-95-169 (other)
VL: B5 VL with S50A, S51V, Y87H
B19: ABT1-95-178 (other)
VL: B5 VL with S51V, Y87H, Q89R
B20: ABT1-95-168 (other)
VL: B5 VL with Y53F, Y87H
B21: ABT1-95-175 (other)
VL: B5 VL with Q27R, S50A, Y87H, Q89R
B22: ABT1-95-165 (other)
VL: B5 VL with L33M, Y87H
B23: ABT1-95-23 (other)
VL: B5 VL with I29T
notes: VK dAb
B24: ABT1-95-25 (other)
VL: B5 VL with Q89D
notes: VK dAb
B25: ABT1-95-29 (other)
VL: B5 VL with R93Q
notes: VK dAb
B26: ABT1-95-22 (other)
VL: B5 VL with R93H
notes: VK dAb
B27: ABT1-95-102 (other)
VL: B5 VL with E55Q, Y87H
notes: VK dAb
B28: ABT1-95-34 (other)
VL: B5 VL with Q27A, Y87H
notes: VK dAb
B29: ABT1-95-33 (other)
VL: B5 VL with Q89R
notes: VK dAb
B30: ABT1-95-64 (other)
VL: B5 VL with I48V, Y49H, Y87H, I106V
notes: VK dAb
B31: ABT1-95-47 (other)
VL: B5 VL with Q27M, Y87H
notes: VK dAb
B32: ABT1-95-26 (other)
VL: B5 VL with Q89G
notes: VK dAb
B33: ABT1-95-67 (other)
VL: B5 VL with S50A, Y87H
notes: VK dAb
B34: ABT1-95-41 (other)
VL: B5 VL with Q27Y, Y87H
notes: VK dAb
B35: ABT1-95-31 (other)
VL: B5 VL with R93L
notes: VK dAb
B36: ABT1-95-80 (other)
VL: B5 VL with S51V, Y87H
notes: VK dAb
B37: ABT1-95-27 (other)
VL: B5 VL with G41R, Q89A
notes: VK dAb
B38: ABT1-95-92 (other)
VL: B5 VL with Y53T, Y87H
notes: VK dAb
B39: ABT1-95-44 (other)
VL: B5 VL with Q27S, Y87H
notes: VK dAb
B40: ABT1-95-116 (other)
VL: B5 VL with Y87H, Q89V
notes: VK dAb
B41: ABT1-95-115 (other)
VL: B5 VL with Y87H, Q89L
notes: VK dAb
B42: ABT1-95-24 (other)
VL: B5 VL with Q89C
notes: VK dAb
B43: ABT1-95-32 (other)
VL: B5 VL with R93S
notes: VK dAb
B44: ABT1-95-28 (other)
VL: B5 VL with R93G
notes: VK dAb
B45: ABT1-95-85 (other)
VL: B5 VL with S26G, S51G, Y87H, Q89L
notes: VK dAb
B46: ABT1-95-107 (other)
VL: B5 VL with P56H, Y87H
notes: VK dAb
B47: ABT1-95-30 (other)
VL: B5 VL with G91S
notes: VK dAb
B48: ABT1-141-29 (other)
VL: DIQVTQSPSSLSASVGDRVTITCRASQWIQKQLAWYQLKPGKAPKLLIYSSSYLQSGVPSRFSGSGSGTDFTLTISSLQPEDFATYYCQQHLRVPFTFGQGTKVEIKR
B49: ABT1-141-31 (other)
VL: B48 VL with V4M, L38Q, Y53W, F96M
B50: ABT1-141-32 (other)
VL: B48 VL with V4M, V19I, F96M
B51: ABT1-141-33 (other)
VL: B48 VL with V4M, Y53W, F96M
B52: ABT1-141-562 (other)
VL: B48 VL with V4M, S26N, L38Q, Y53W, F96M

Assays:
[1] = molecular target: T1, human IL-1α; assay: cell-based or functional assay
[2] = molecular target: T1, human IL-1α; assay: Table 62 IC50; RBA presumed

Row | Binder | ND50 [1] [nM] | IC50 [2] [pM]
1 | B1 | 0.713 | 
2 | B2 | 100 | 
3 | B3 | 500 | 
4 | B4 | 3000 | 
5 | B5 | 0.61 | 500
6 | B6 | 0.2 | 
7 | B7 | 0.171 | 
8 | B8 | 0.035 | 
9 | B9 | 0.151 | 
10 | B10 | 0.469 | 
11 | B11 | 0.006 | 
12 | B12 | 0.027 | 
13 | B13 | 0.024 | 
14 | B14 | 0.059 | 
15 | B15 | 0.016 | 
16 | B16 | 0.011 | 
17 | B17 | 0.022 | 
18 | B18 | 0.093 | 
19 | B19 | 0.004 | 
20 | B20 | 2.3 | 
21 | B21 | 0.017 | 
22 | B22 | 0.391 | 
23 | B23 | 0.5 | 500
24 | B24 | 0.43 | 500
25 | B25 | 1 | > 500
26 | B26 | 1 | 500

Row | Binder | ND50 [1] [nM] | IC50 [2] [pM]
27 | B27 | 0.184 | 100
28 | B28 | 1 | 100
29 | B29 | 1 | 500
30 | B30 | 0.438 | 3000
31 | B31 | 0.139 | 100
32 | B32 | 0.71 | 500
33 | B33 | 0.044 | 100
34 | B34 | 0.15 | < 100
35 | B35 | 3.3 | > 500
36 | B36 | 0.008 | 300
37 | B37 | 1 | 500
38 | B38 | 0.5 | < 100
39 | B39 | 0.15 | < 100
40 | B40 | 0.168 | 200
41 | B41 | 0.23 | 200
42 | B42 | 0.27 | 500
43 | B43 | 1.2 | > 500
44 | B44 | 2 | > 500
45 | B45 | 0.713 | 200
46 | B46 | 0.5 | 100
47 | B47 | > 10 | > 1000
48 | B48 | 20 | 
49 | B49 | 2 | 
50 | B50 | 10 | 
51 | B51 | 3 | 
52 | B52 | > 10 | 

Source: patent US20090291081A1 (AbbVie / Abbott, published 2009)
